B1: Loop B, P1(5bp) (structured_RNA)
RNA: GGUUAUCAUGCGGGCGAAAGUCUGUACCUCUGGCC
B2: Loop B, Fully Paired (structured_RNA)
RNA: GGUCUUAUCAUGCGGGCGAAAGUCUGUAUGAUGGGACC
B3: Loop B fully paired RNA duplex (dsRNA)
RNA 1: GGUCUUAUCAUGCGGGC
RNA 2: GCCCGCAUGAUAAGACC
B4: Loop B, Bulge(0+1) (structured_RNA)
RNA: GGUCUUAAGGUGCGGGCGAAAGUCUGUACCUCUGGGACC
B5: 9 bp hairpin (structured_RNA)
RNA: GGUCCAUGCGAAAGUAUGGACC
B6: 5 bp hairpin (structured_RNA)
RNA: GGUCCGAAAGGACC
B7: 13 bp hairpin (structured_RNA)
RNA: GGUCCAUGCGGGCGAAAGUCUGUAUGGACC
B8: ES2 89-178 (structured_RNA)
RNA: GGCUGGAACAUCUGUUUCUAGCUUGUUGUUCCUCUUGGCUGCUUUUCAAUUGGAUUUCCUCGAGCAGGUCCCAGGCUUGUCACUGCAGCCA
B9: ES2 89-267 (structured_RNA)
RNA: GGCUGGAACAUCUGUUUCUAGCUUGUUGUUCCUCUUGGCUGCUUUUCAAUUGGAUUUCCUCGAGCAGGUCCCAGGCUUGUCACUGCAGCCAGGGUCUGUUAACCAUCACCACUGGUUCUACAUUAAGUAGGAGGUUCAGGGCUAAGCUAAUAACUCGCCUGCCUUUCUGACUGAUCACAG
B10: ES2 179-354 (structured_RNA)
RNA: GGGUCUGUUAACCAUCACCACUGGUUCUACAUUAAGUAGGAGGUUCAGGGCUAAGCUAAUAACUCGCCUGCCUUUCUGACUGAUCACAGUGAUGUUCGCCGUGGCCACUUAUCAUGCGGGCUCCUUUGGGAGGGUGCUCUUCUUUGUCUGUACCUCUGGGUGGAAAGGGCGAAUUC
B11: env4 Cbl riboswitch (structured_RNA)
RNA: GGUGUUAAAAGCAUAGUGGGAAAGUGACGUGUAAUUCGUCCACAUUACUUGAUGCGGUUAUAGUCCCAAUGCCACCUAACACAAAGUACGAGCAAGGAGACUC
B12: tRNALeu(CAG) (structured_RNA)
RNA: GCGAAGGUGGCGGAAUUGGUAGACGCGCUAGCUUCAGGUGUUAGUGUCCUUACGGACGUGGGGGUUCAAGUCCCCCCCCUCGCACCAGGAUCU
B13: ES2 1-178 (structured_RNA)
RNA: GGAAGAAGUGAAAUCACUAUAUUUAGAAACGAAUGCUACCAUCCCACCCCAACUACAUGUUCAGGUUAAAUGCGUGCACAUCCUGGUAGCUGGAACAUCUGUUUCUAGCUUGUUGUUCCUCUUGGCUGCUUUUCAAUUGGAUUUCCUCGAGCAGGUCCCAGGCUUGUCACUGCAGCCA
B14: ES2 179-267 (structured_RNA)
RNA: GGGUCUGUUAACCAUCACCACUGGUUCUACAUUAAGUAGGAGGUUCAGGGCUAAGCUAAUAACUCGCCUGCCUUUCUGACUGAUCACAG
B15: xpt-pbuX riboswitch (structured_RNA)
RNA: GGACAUAUAAUCGCGUGGAUAUGGCACGCAAGUUUCUACCGGGCACCGUAAAUGUCCGACUAUGUCC
B16: ES2 1-89 (structured_RNA)
RNA: GGAAGAAGUGAAAUCACUAUAUUUAGAAACGAAUGCUACCAUCCCACCCCAACUACAUGUUCAGGUUAAAUGCGUGCACAUCCUGGUAG
B17: ES2 267-354 (structured_RNA)
RNA: GGUGAUGUUCGCCGUGGCCACUUAUCAUGCGGGCUCCUUUGGGAGGGUGCUCUUCUUUGUCUGUACCUCUGGGUGGAAAGGGCGAAUUC
B18: Loop B, Bulge(2+3) (structured_RNA)
RNA: B4 RNA with A8U, G9C
B19: Loop B, Bulge(1+2) (structured_RNA)
RNA: B4 RNA with A8U
B20: Loop C (structured_RNA)
RNA: GGUGGGCUCCUUUGGGAGGGUGCUCUUCUUUGUCUACC
B21: Loop B, P2(3bp) (structured_RNA)
RNA: GGUCUUAUCAUGCGAAAGUACCUCUGGGACC
B22: Loop B, P1(3bp) (structured_RNA)
RNA: GGAUCAUGCGGGCGAAAGUCUGUACCUCUCC
B23: Loop B, P2(5bp) (structured_RNA)
RNA: GGUCUUAUCAUGCGCGAAAGUGUACCUCUGGGACC
B24: Loop A (structured_RNA)
RNA: GGUCGCCGUGGCCACUUCGAAAGGGGUGGAAAGGGCGACC
B25: Loop B, P1/2(3bp) (structured_RNA)
RNA: GGUAUCAUGCGGAAACGCACCUCUACC
B26: Loop B (structured_RNA)
RNA: B4 RNA with A8U, G9C, G10A
B27: env8 ssRNA (ssRNA)
RNA: AUACAACAUACAACAUACAACAUACAACAUACAACA
B28: Loop B fully paired RNA duplex (Fig. 3g) (dsRNA)
RNA 1: GGUCUUAUCAUGCGGGC
RNA 2: GCCCGCAUGAUAAGACC
B29: CCND1_SM6 dsDNA (dsDNA)
DNA 1: CGCGCACTACAGCCCGGGT
DNA 2: ACCCGGGCTGTAGTGCGCG
B30: SOX2 enhancer dsDNA (dsDNA)
DNA 1: CGCGCCATTGTGCCCGGGT
DNA 2: ACCCGGGCACAATGGCGCG
B31: CCND1_SM1 dsDNA (dsDNA)
DNA 1: CGCGCCCTCTTCCCCGGGT
DNA 2: ACCCGGGGAAGAGGGCGCG
B32: DPPA4 enhancer dsDNA (dsDNA)
DNA 1: CGCGCATTTGTACCCGGGT
DNA 2: ACCCGGGTACAAATGCGCG
B33: FGF4 enhancer dsDNA (dsDNA)
DNA 1: CGCGCCTTTGTTCCCGGGT
DNA 2: ACCCGGGAACAAAGGCGCG

Where a chain is given by its changes, count along the chain named. Where “and” joins values, the source holds several entries; their conditions need not be identical. Equal entries are not always repeated.

Chain of Sox2 full length (P48431 whole entry): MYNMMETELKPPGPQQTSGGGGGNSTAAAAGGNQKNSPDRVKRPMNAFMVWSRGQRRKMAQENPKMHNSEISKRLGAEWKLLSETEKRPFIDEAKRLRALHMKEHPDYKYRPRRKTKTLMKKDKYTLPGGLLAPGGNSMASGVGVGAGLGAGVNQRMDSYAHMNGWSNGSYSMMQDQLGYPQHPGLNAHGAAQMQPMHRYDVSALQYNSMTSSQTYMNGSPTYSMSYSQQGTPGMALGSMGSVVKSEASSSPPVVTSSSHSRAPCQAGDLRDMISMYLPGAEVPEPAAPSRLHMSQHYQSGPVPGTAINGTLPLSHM

In one data set the target is T1, Sox2-HMG (Homo sapiens, UniProt P48431 40-123). The data set can be described thus: fluorescence anisotropy; 10 mM Tris-HEPES pH 7.5, 135 mM KCl, 15 mM NaCl, 1 mM DTT, 8% Ficoll, 0.05% NP-40, 0.1 mg/mL BSA; 2 nM DNA or 3 nM RNA; room temperature (stated for competition). The following applies: protein: recombinant; tags: N-terminal His6, thrombin cleaved; label: 3' fluorescein; hairpin.
T1 sequence (P48431 40-123): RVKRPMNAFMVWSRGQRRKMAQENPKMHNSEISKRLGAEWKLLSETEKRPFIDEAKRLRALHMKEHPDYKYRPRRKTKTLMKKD
As to B1, the equilibrium dissociation constant (Kd) turned out to be 12.8 ± 1.8 nM.

For B2, the equilibrium dissociation constant (Kd) came to 15 ± 2 nM.

Still in this data set, the particulars now being: protein: recombinant; tags: N-terminal His6, thrombin cleaved; label: FAM on one strand; blunt.
Take B3: the Kd came to 54 ± 9 nM.

The next data set concerns the target T1, Sox2-HMG. The data set can be described thus: competition; unlabeled RNA vs labeled FGF4 DNA; 10 mM Tris-HEPES pH 7.5, 135 mM KCl, 15 mM NaCl, 1 mM DTT, 8% Ficoll, 0.05% NP-40, 0.1 mg/mL BSA; 2 nM DNA or 3 nM RNA; room temperature (stated for competition). The following applies: protein: recombinant; tags: N-terminal His6, thrombin cleaved; label: 3' fluorescein; hairpin.
For the molecule B4, the Ki is 13 ± 4 nM.

For a further data set, the target named is T1, Sox2-HMG. The data set can be described thus: EMSA; 10 mM Tris-HEPES pH 7.5, 135 mM KCl, 15 mM NaCl, 1 mM DTT, 8% Ficoll, 0.05% NP-40, 0.1 mg/mL BSA; 2 nM DNA or 3 nM RNA; room temperature (stated for competition). Conditions: protein: recombinant; tags: N-terminal His6, thrombin cleaved; label: 3' fluorescein; hairpin.
As to B2, the Kd was 20 ± 4 nM.

For the next data set, the target named is Sox2-HMG (HRV 3C cleaved) (Homo sapiens, UniProt P48431 38-121). The data set can be described thus: fluorescence anisotropy; 10 mM Tris-HEPES pH 7.5, 8% Ficoll, 0.05% NP-40, 135 mM KCl, 15 mM NaCl, 1 mM DTT, 0.1 mg/mL BSA; 2 nM DNA or 3 nM RNA. Conditions: protein: recombinant; tags: N-terminal GPHM left after removal of His8-MBP; label: 3'-FAM; hairpin.
Chain of Sox2-HMG (HRV 3C cleaved) (P48431 other isoform, or with tags, fused parts or gaps): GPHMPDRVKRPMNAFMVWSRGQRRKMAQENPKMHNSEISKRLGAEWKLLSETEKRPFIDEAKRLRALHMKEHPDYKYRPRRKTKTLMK
B5: the Kd was found to be 54 ± 6.94 nM.

Take B6: the Kd turned out to be 71 ± 12.1 nM.

Turning to B7, the dissociation constant (Kd) was 83 ± 9.8 nM.

A further data set deals with Sox2-HMG (thrombin cleaved) (Homo sapiens, UniProt P48431 38-121). The data set is described as above. The following applies: protein: recombinant; tags: N-terminal GSHM left after thrombin cleavage of His6; label: 3' fluorescein.
Chain of Sox2-HMG (thrombin cleaved) (P48431 other isoform, or with tags, fused parts or gaps): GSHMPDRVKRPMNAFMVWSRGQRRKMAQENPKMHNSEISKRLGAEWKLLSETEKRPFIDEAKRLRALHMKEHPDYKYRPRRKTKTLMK
On to B8, for which the Kd is 13.4 ± 1.63 nM.

On to B9, for which the equilibrium dissociation constant (Kd) was found to be 32.4 ± 6.56 nM.

On to B10, for which the Kd came out at 11.2 ± 0.792 nM.

Regarding B11, the Kd came out at 32.4 ± 1.08 nM.

On to B12, for which the Kd came out at 26.5 ± 5.62 nM.

On to B13, for which the dissociation constant (Kd) was found to be 29.7 ± 4.07 nM.

As to B14, the Kd was found to be 11.5 ± 2.68 nM.

For B15, the equilibrium dissociation constant (Kd) was determined as 25.4 ± 2.54 nM.

Turning to B16, the Kd amounted to 22.2 ± 3.26 nM.

As to B17, the Kd was 10.3 ± 2.03 nM.

The data set is the same for the next values; noted with them: protein: recombinant; tags: N-terminal GSHM left after thrombin cleavage of His6; label: 3' fluorescein; hairpin.
Regarding B4, the Kd is 10 ± 1.66 nM.

Turning to B18, the Kd is 13.6 ± 2.46 nM.

As to B19, the dissociation constant (Kd) was found to be 12 ± 1.98 nM.

Consider B1, for which the Kd came to 12.8 ± 1.84 nM.

As to B20, the Kd was 11.2 ± 1.57 nM.

Consider B21, for which the Kd was 11.4 ± 1.46 nM.

For the molecule B22, the dissociation constant Kd stood at 10.3 ± 1.94 nM.

Take B2: the Kd worked out at 14.7 ± 1.68 nM.

As for B23, the dissociation constant (Kd) was 9.6 ± 1.32 nM.

For the molecule B24, the Kd came to 11.3 ± 2.5 nM.

For B25, the Kd was 10.6 ± 1.82 nM.

The same data set, now with this note: protein: recombinant; tags: N-terminal GSHM left after thrombin cleavage of His6; label: 3' fluorescein; hairpin with internal loop.
In the case of B26, the equilibrium dissociation constant (Kd) stood at 10 ± 1.68 nM.

The same data set, now with this note: protein: recombinant; tags: N-terminal GSHM left after thrombin cleavage of His6; label: 3' fluorescein; unstructured.
B27: the dissociation constant (Kd) amounted to 502 ± 123 nM.

The same data set, now with this note: protein: recombinant; tags: N-terminal GSHM left after thrombin cleavage of His6; label: FAM on one strand.
Turning to B28, the dissociation constant (Kd) was 35.1 ± 2.81 nM.

Staying with this data set, now noted: protein: recombinant; tags: N-terminal GSHM left after thrombin cleavage of His6; label: FAM; only (+) strand given.
In the case of B29, the Kd turned out to be 23.8 ± 5.4 nM.

Consider B30, for which the Kd was determined as 0.867 ± 0.219 nM.

Regarding B31, the Kd worked out at 9.77 ± 1.07 nM.

For the molecule B32, the dissociation constant Kd turned out to be 3.4 ± 0.954 nM.

For B33, the Kd is 0.937 nM and 0.85 nM.

Another data set has as its target Sox2 full length (Homo sapiens, UniProt P48431 1-317). Described as above. The following applies: protein: recombinant; tags: N-terminal His6 and thrombin site (retained); label: 3' fluorescein; unstructured.
B27: the dissociation constant (Kd) came to 512 ± 76.5 nM.

Staying with this data set, now noted: protein: recombinant; tags: N-terminal His6 and thrombin site (retained); label: FAM; only (+) strand given.
B33: the dissociation constant (Kd) worked out at 2.1 ± 0.599 nM.
